Assay: yeast display, Sf9 membrane polyspecificity reagent, FACS + sequencing; frameworks hold sequencing errors
Outline: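 Nanobodies from a synthetic yeast display library (Saccharomyces cerevisiae BJ5465), induced 36–48 hours with galactose, were stained 1 hour at 4 °C with 10% biotinylated, detergent-solubilized Sf9 membrane reagent, enriched on streptavidin microbeads, then FACS-sorted. Anti-HA (expression) and streptavidin (reagent binding) fluorescence set low and high (top ~1%) gates. Polyreactivity labels come from the gate of origin. Genes were colony-PCR amplified, MiSeq 2 × 250 sequenced and filtered by CDR length.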

Row | Sequence | polyreactivity (PSR sort gate)
1 | QVQLVESGGGLVQAGGSLRLSCAASGSIFWRYSMGWYRQAPGKERELVAAINYSTTRTYYADSVKGRFTISRDNAKNTVYLQMNSLKPEDTAVYYCAADSRVDEGEYWGQGTQVTVSS | high polyreactivity
2 | QVQLVESGGGLVQAGGSLRLSCAASGSIFWSNAMGWYIQAPGKERELVAAITGGGTTNYADSVKGRFTISRDNAKNTVYLQMNSLKPEDTAVVYTVSSAQYDYWGQGTQVTVSS | low polyreactivity
3 | QVQLVESGGGLVQAGGSLRLSCAASGSIFWSYAMGWYRHAPGKESELVAAITYSGTSTYYADSVKGRFTISRDTAKNTVYLQMNSLKPEDTAVYYCAASPFSRSRNDYWGQGTQVTLSS | low polyreactivity
4 | QVQLVESGGGLVQAGGSLRLSCAASGSIFWSYAMGWYRQAPGKERELVAAIRRGGSTNYADSVKGRFTISRDNAKNTVYLQMNSLKPEDTAVYYCAKSRGVRREPPKYATTYNYWGQGTQVTVSS | low polyreactivity
5 | QVQLVESGGGLVQAGGSLRLSCAASGSIFWTYAMGWSRQAPGKERELVATITYSDGNTYYADSVKGRFTISRDNAKNTVYFQMNSLKPEDTAVYYCNADGIYATISGYRYDYWGQGTQVTVSS | low polyreactivity
6 | QVQLVESGGGLVQAGGSLRLSCAASGSIFWVYAMGWYRQAPGKEREFVAAITYSGGSTYYADSVKGRFTISRDNAKNTVYLQMNSLKPEDTAVYYCAADYDYDYGSRYYYWGQGTQVTVSS | low polyreactivity
7 | QVQLVESGGGLVQAGGSLRLSCAASGSIFWVYAMGWYRQAPGKERELVAAISNRGGSTYYSDSVKGRFTISRDNAKITVYLQMNSLKPEDTAVYYCAAVVAHHYYWGQGTQVTVSS | high polyreactivity
8 | QVQLVESGGGLVQAGGSLRLSCAASGSIFWWYTMGRYRQAPGKERELVAAITWNADGTYYADSVKGRFTISRDNAKNTVYLQMNSLKPEDTAVYYCAADQYYLDWGGGYDYWGQGPQVTVSS | low polyreactivity
9 | QVQLVESGGGLVQAGGSLRLSCAASGSIFWYNAMGWYIHAPWNERELVAAITSSSGRTRYADSEKGRFTISRDNAKNTVYLQMNSLKQEDTAVYYCAVAEGYSPAYLRDYWGQGTQVTVSS | high polyreactivity
10 | QVQLVESGGGLVQAGGSLRLSCAASGSIFWYNAMGWYRQAPGKERELVAAISRSGSRTYYADSVKGRFTISRDNAKNTVYVQMTSLKPEATAVYYCARVRPRGLYFVLHYDYWGQGTQVTVSS | high polyreactivity
11 | QVQLVESGGGLVQAGGSLRLSCAASGSIFWYNAMGWYRQAPGKERELVAAITSGGTTSYADSVKGRFTISRDNAKNTVYLQMNSLKPEDTAVYYCAKDWNDDQHSWDTPFDYWGQGTQVTVSS | low polyreactivity
12 | QVQLVESGGGLVQAGGSLRLSCAASGSIFWYNAMVWYRQAPGKERELVAAISYSGDRTYYADSVKGRFTISRDNAKYTVYLQMNSLKPEDTAFYYCAKAGTGFYNSWWEDYWGQGTQVTVSS | low polyreactivity
13 | QVQLVESGGGLVQAGGSLRLSCAASGSIFWYNSMGWYRQAPGKERELVAAISYRGGRTYYADSVKGRFTISRDNAKNTVYLQMNSLKPEDTAVYYCNAPRYLGGGQDALGDYWGQGTQVTVSS | high polyreactivity
14 | QVQLVESGGGLVQAGGSLRLSCAASGSIFWYYAMGWYRQAPGKERELVAAISGSGTRTYYADSVKGRFTISRDNAKNTVYLQMNSLKPEDTAVYYCAATAVRQSGRYLSSSGYDYWGQGTQVTVSS | high polyreactivity
15 | QVQLVESGGGLVQAGGSLRLSCAASGSIFWYYAMGWYRQAPGKERELVAAITGSGVRTYYADSVKGRFTISRDNAKNTVYLQMNSLKPEDTAVYYCNAVSSHSFYFYGDHNYWGQGTQVTVSS | low polyreactivity
16 | QVQLVESGGGLVQAGGSLRLSCAASGSIFWYYAMGWYRQAPGKERELVARITFSGSRTHYADSVKGRFTISRDNAKNTVYLQMNSLKPEDTSVYYCATDTVYGNDYWGQGTQVTVSS | low polyreactivity
17 | QVQLVESGGGLVQAGGSLRLSCAASGSIFWYYAMGWYRQAPGKERELVATITSGGTNYADSVKGRFTISRDNAKNTVYLQMNSLKPEDTAVYYCNADVSWSRIFYLGYDSNDYWGQGTQVTVSS | low polyreactivity
18 | QVQLVESGGGLVQAGGSLRLSCAASGSIFWYYGMGWYRQAPGKERELVAAISSGGSTNYADSVKVRFAISRDNAKNTVYLQMNSLKPEDTAVYYCAVRFTFPRYPASYSRYYYWGQGTQVTVSS | high polyreactivity
19 | QVQLVESGGGLVQAGGSLRLSCAASGSIFYANAMGWYRQAPGKERELVAAIDGGSTYYADSVKGRFTISRDNAKNTVYLQMNSLKPEDTAVYYCAADYFNYRGYTYLGDYWGQGTQVTVSS | low polyreactivity
20 | QVQLVESGGGLVQAGGSLRLSCAASGSIFYAYAMGWYRQAPGKERELVATISSVGSTYYADSVKGRFTISRDNAKNTVYLQMNSLKPEDTAVYYCAKQRIVVYKTGYDYWGQGTQVTVSS | low polyreactivity
21 | QVQLVESGGGLVQAGGSLRLSCAASGSIFYAYAMGWYTQAPGKERELVATISSVGSTYYADSVKGRFTISRDNAKNTVYLQMNSLKPEDTAVYYCAKQRIVVYKTGYDYWGQGTQVTVSS | low polyreactivity
22 | QVQLVESGGGLVQAGGSLRLSCAASGSIFYAYAMRWYRQAPGKERELVAVINSGGSTYYADSVKGRFTISRDNAKNTVYLQMHSLKPEDTAVYYCNATQDRGKYDYPPRGRGYYYWGQGTQVTVSS | high polyreactivity

Row | Sequence | polyreactivity (PSR sort gate)
23 | QVQLVESGGGLVQAGGSLRLSCAASGSIFYDAMGWYRQAPGKERELVAAITSSGGDTSYADSVKGRCTISRDNAKNTVYLQMNSLKPEDTAGYYCNADTYYVEYTAFDYWGQGTQVTVSS | low polyreactivity
24 | QVQLVESGGGLVQAGGSLRLSCAASGSIFYDNAMGWYRPAPGKERELVATIRGGGNTYYADSVKGRFTISRDNAKNTVYLQMNSLKPEDTAVYYCSKQSDFPGVPLVYGVYGYDYWGQGTQVTVSS | low polyreactivity
25 | QVQLVESGGGLVQAGGSLRLSCAASGSIFYDNAMGWYRQAPGKERELVAAIRGRGGSTYYADSVKGRFTISRDNAKNTVYLQMNSLKPVDTAVYYCAAERPIAVVRYYTYYYWGQGTQVTVSS | high polyreactivity
26 | QVQLVESGGGLVQAGGSLRLSCAASGSIFYDNAMGWYRQAPGKERELVASIRYSGVRTYYADSVKGRFTISRDNAKNTVYLQMNSLKPEDTAVYYCAADVYRQFYPFKSDYWGQGTQVTVSS | high polyreactivity
27 | QVQLVESGGGLVQAGGSLRLSCAASGSIFYDNAMGWYRQAPGKERELVATIRGGGNTYYADSVKGRFTISRDNAKNTVYLQMNSLKPEDTAVYYCAKQSDFPGVPLVYGVYGYDYWGQGTQVTVSS | low polyreactivity
28 | QVQLVESGGGLVQAGGSLRLSCAASGSIFYDYAMGWYRQAPGKERELVAAINSGDSTYYADSVKGRFTISRDNAKNTVYLQMNSLKPEDTAVYYCAATYFSPYIEYDYWGQGTQVTVSS | low polyreactivity
29 | QVQLVESGGGLVQAGGSLRLSCAASGSIFYDYAMGWYRQAPGKERELVAALTNDDSSTYYADSVKGRFTISRDNAKNTVYLQMNSLKPEDTAVYYCRFKYAVAHQFWVYRYDYWGQGTQVTVSS | low polyreactivity
30 | QVQLVESGGGLVQAGGSLRLSCAASGSIFYDYAMGWYRQAPGKERELVADITDDSTNYADSVKGRFTISRDNAKNTVYLQMNSLKPEDTAVYYCAVDWYWGWYWDGGVLTYYYWGQGTQVTVSS | low polyreactivity
31 | QVQLVESGGGLVQAGGSLRLSCAASGSIFYDYEMGWYRQAPGKERELVASINTGGSTNYADSVKGRFTISRDNAKNTVYLKMNSLKPEDTAVYYCNAPRGYPTSANHLDYWGQGTQVTVSS | low polyreactivity
32 | QVQLVESGGGLVQAGGSLRLSCAASGSIFYENAMGWYRKAPGKEREFVATIDLIGDRTYYADSVKGRFTISRDNAKNTVYLQMNSLKPEDTAVYYCAAERVGVFFRYDYWGQGTQVTVSS | low polyreactivity
33 | QVQLVESGGGLVQAGGSLRLSCAASGSIFYFNAMGWYRQAPGKERELVARISGSSGRTYYADSVKGRFTISRDNAKNTVYLQMNSLKPEDTAVYYCAARYYTSATMDYWGQGTQVTVSS | high polyreactivity
34 | QVQLVESGGGLVQAGGSLRLSCAASGSIFYFNAMGWYRQAPGKERELVASITSGGSTNYADSVKGRFTISRDNAKNTVYLQMNSLKPEDTAVYYCNARFPYLSRWLVRGLASYDYWGQGTQVTVSS | low polyreactivity
35 | QVQLVESGGGLVQAGGSLRLSCAASGSIFYFYARGWYRLAPGKERELVAAIRFTGGTTYYADSVKGRFTISRDNAKNTVDLQMNSLKPEDTADYYCAKQTSYWSRGFDYWGQGTQVTVSS | low polyreactivity
36 | QVQLVESGGGLVQAGGSLRLSCAASGSIFYGNAMGGYRQAPGKERELVASITYSGGNTQYADSVKGRFTISRDNAKNTVYLQMNSLKPEVTAVYYCNARRYGVDTGWRQGLDSWGQGTQVTVSS | low polyreactivity
37 | QVQLVESGGGLVQAGGSLRLSCAASGSIFYGNAMGWYRPAPGKERELVAGITSGVGTNYADSVKGRFTISRDNAKNTVYLQMNSLKPEDTAVYYCAARVYRYRHYDYWGQGTQVTVSS | high polyreactivity
38 | QVQLVESGGGLVQAGGSLRLSCAASGSIFYGNAMGWYRQAPGKEREFVAAINWSGARTYYADSVKGRFTISRDNAKNTVSLQMNSLKPEDTAVYYCAAGRPFSFRYEFDYWGQGTQVTVSS | high polyreactivity
39 | QVQLVESGGGLVQAGGSLRLSCAASGSIFYGNAMGWYRQAPGKEREFVAGISWYGGSTYYADSVKGRFTISRDNAKNTVYLQMNSLKPEDTAVYYGATVADEPRAYSGYEESDYWGQGTQVTVSS | low polyreactivity
40 | QVQLVESGGGLVQAGGSLRLSCAASGSIFYGNAMGWYRQAPGKERELVARISWSGSNTRYADSVKGRFTISRDNAKNTVYLQMNSLKPEDTAVYYCNVKPSARGSPLYDYWGQGTQVTVSS | high polyreactivity
41 | QVQLVESGGGLVQAGGSLRLSCAASGSIFYGNAMGWYRQAPGKERELVASITYSGGTTNYADSVKGRFTISRDNAKNTVYLQMNSLKPEDTAVYYCNADIYPDRYGSTNYDFNYWGQGTQVTVSS | low polyreactivity
42 | QVQLVESGGGLVQAGGSLRLSCAASGSIFYGYAMGWYRQAPGKEREFVAGIDSSGGSTSYADSVKGRFTISRDNAKNTVYLQMNSLKPEDTAVYYCNAPDPSDQHGDYWGQGTQVTVSS | low polyreactivity
43 | QVQLVESGGGLVQAGGSLRLSCAASGSIFYGYAMGWYRQAPGKERELVAAIRSRGGSTYYADSVKGRFTNSRDNEKNTVYLQMKCLKPEDTAVYYCNAVCRARTLCSNTYGYWGQGTQVSVSS | high polyreactivity
